Experiments:
[1] = target: human uPA (form not stated) (human, UniProt P00749); test: ELISA
[2] = target: full-length uPA (human urokinase plasminogen activator) (Homo sapiens, UniProt P00749, biotin (biotinylated antigen on streptavidin biosensors)); test: BLI

binding result [1]: binds
binding result [2]: binds
B1: AB2 Fab (Fab, V domains shown)
VH: QLTQSGGGLVKPGRSLRLSCTASGFTFGDYAMSWVRQAPGKGLEWVGFVRSESAGATTEYAASVKGRFTISRDDSKSIAYLQMNALKTEDTAVYYCIRGANWNWGQGTLVTVSS
VL: EIVLTQSPLSLPVTPGEPASISCRSSQLMNRNGNNFLDWYLQKPGQSPQLLIYLGSNRAPGVPDRFSGSGSGTDFTLKISRVEAEDVGVYYCMARVEAPYSFGQGTKLEIR
